To fix the notation:
B1: HDV Ribozyme (parent)
chain: GGCCGGCAUGGUCCCAGCCUCCUCGCUGGCGCCGGCUGGGCAACAUUCCGAGGGGACCGUCCCCUCGGUAAUGGCGAAUGGGACCCA

Variants of B1 are the subject of the data set. The data set is described as follows: self-cleavage, relative activity (ratio to wild type); higher = more cleavage; co-transcriptional.
Consider GGCCGGCAUGGUACCAGCCUCCUCGCUGGCGCCGGCUGAGCAACAUUCCGAGGGGACCGUCCCCUCGGUAAUGGCGAAUGGGACCCA [C13A G39A], for which the self-cleavage was determined as 0.121. For GGCCGGCAUGGUACCAGCCUCCUCGCUGGCGCCGGCUGGGCAACAUUCCGAGGGGACCGUCCCCUCGGUAAUGGCGAAUGGGACCCC [C13A A87C], the self-cleavage came out at 0.222.

For GGUCGGCAUGGUCCCAGCCUCCUCGCUGGCGCCGGCUGGGCAACAUUCCGAGGGGACCGUCCCCUCGAUAAUGGCGAAUGGGACCCA [C3U G68A], the self-cleavage was 0.831. With GGCCGGCAUGGUCCCAGCCUCCUCGCUGGCGCCGGCUGGGCAACAUUCCGAGAGGACCGUCCCCUCGGUAAUGGCGCAUGGGACCCA [G53A A77C] the figure was 0.251; with GGCCGGCAUGGUCCCAGCCUCCACGCUGGCGCGGGCUGGGCAACAUUCCGAGGGGACCGUCCCCUCGGUAAUGGCGAAUGGGACCCA [U23A C33G], 0.35. On to GGCCGGCAUGGUCCCAGCCUCCUCGCUGGCGCCGGCUGGGCAACAUUCCAAGGGGACCGUCCCCUCGGAAAUGGCGAAUGGGACCCA [G50A U69A], for which the self-cleavage amounted to 1.01. For GGCCGGCAUGGUCCCAGCCUCCUCGCUGGCGCCGGCUGGGUAACAUUCCGAGGGGACGGUCCCCUCGGUAAUGGCGAAUGGGACCCA [C41U C58G], the self-cleavage worked out at 0.889.

With GGCCGGCAUGGUCCCAGCCUCUUCGCUGGCGCCGGCUGGGCAACAUUCCGAGGGGACCGUCCCCUCGGUAAUGGCGAAUGGGACCCA [C22U], the self-cleavage was found to be 0.736. GGCCGGCAUGGUCCCAGCCUCCUCGCUGGCGCCGGCUGGGCAACAUUCCGAGGGGACCGUACCCGCGGUAAUGGCGAAUGGGACCCA [C61A U65G]: the self-cleavage was determined as 0.92.

Regarding GGCCGGCAUGGUCCCAGCCUCCUCGCUGGCGCCGACUGGGCAACAUUCCGAGGGGACCGUCCCCUCGGCAAUGGCGAAUGGGACCCA [G35A U69C], the self-cleavage turned out to be 0.591. GGCCGGCAGGGUCCCAGCCUCCUCGCUGGCGCCGGCUGGGCAACAUUCCGAGGGGACCGUCCCCUCGGUAAUGGCGAACGGGACCCA [U9G U79C]: the self-cleavage was found to be 0.748.

Take GGCCGGCAUGGUCCCAGCCUCCUCGCUGGUGCCGGCUGGGCAACAUUCCGGGGGGACCGUCCCCUCGGUAAUGGCGAAUGGGACCCA [C30U A51G]: the self-cleavage was determined as 0.784.

Regarding GGCCGGCAUGGUCCCGGCCUCCUCGCUGGCGCCGGCUGGGCAACAUUCCGAGGGCACCGUCCCCUCGGUAAUGGCGAAUGGGACCCA [A16G G55C], the self-cleavage amounted to 1.2.

Turning to GGCCGGCAUGGUCCCAGCAUCCUCGCUGGCGCCGGCUGGGCAACAUUCCGAGGGGACCGUCCCCUCGGUACUGGCGAAUGGGACCCA [C19A A71C], the self-cleavage came to 0.0396. With GGCCGGCAUGGUCCCAGCCUCCUCGCUGGCGCCGGCUGGGCAACAUUCCGAGGGGACCGCCCCCUCGGUAAUGGCGACUGGGACCCA [U60C A78C] the figure was 0.19. With GGCCGGCAUGGUCCCAGUCUCCUCGCUGGCGCCGGCUGGGGAACAUUCCGAGGGGACCGUCCCCUCGGUAAUGGCGAAUGGGACCCA [C18U C41G] the figure was 0.0314; with GGCCGGCAUGGUCCCAGCCUCCUCGCUGGCGCCGGCUGGGCAACAUUUCGAGGGGACCGUCCCCUCGGUAAUGGCGAAUGGGACGCA [C48U C85G], 0.941; with GGCCGGCAUGGUCCCAGCCUCCUCGCUGGCGCCGGCAGGGCAACAUUCCGAGGGGACCGUCCCCCCGGUAAUGGCGAAUGGGACCCA [U37A U65C], 0.225. Take GGCCGGCAUGGUCCCAGCCUCCUCGCUGGCGCCGGCUGAGCAACAUUCCGAGGGGACCGUCCCCUCGGUAAUGGCGAAUGGCACCCA [G39A G82C]: the self-cleavage was 0.128. As for GGCCGGCAUGGUCCCAGCCUCCUCGCGGGCUCCGGCUGGGCAACAUUCCGAGGGGACCGUCCCCUCGGUAAUGGCGAAUGGGACCCA [U27G G31U], the self-cleavage worked out at 0.293.

In the case of GGCCGGCAUGGUCCCAGCCUCCUCGCUGGCGCCGGCUGGGCAACAUUCCGAGGGGACCGUCCCCUCAGUAAUGGCGAAAGGGACCCA [G67A U79A], the self-cleavage was 0.982.

GGCCGGCAUGGUCCCAGCCUCCUCGCUGGCGGCGGCUGGGCAACAUUCCGAGGGGACCGUCCCCUCGGUAAUGGCGAAUUGGACCCA [C32G G80U]: the self-cleavage was found to be 0.0831. With GGCCGGCAUGGUCCCAGCCUCCUCGCUGGCGCCGGCUGGGCAACAUUCCGAGGUGACCGUCCCCUCGGUAAUGGCUAAUGGGACCCA [G54U G76U], the self-cleavage stood at 1.09. GGCCGGCAUGGUCCCAGCCUCCUCGCUGGCGCCGGCUGGGCAAUAUUCCGAGGGGACCGUCCCCUCGGUAAUGGCGAAUGUGACCCA [C44U G81U]: the self-cleavage was 0.212. As for UGCCGGCAUGGUCCCAGCCUCCGCGCUGGCGCCGGCUGGGCAACAUUCCGAGGGGACCGUCCCCUCGGUAAUGGCGAAUGGGACCCA [G1U U23G], the self-cleavage was 0.277. For GGCCGGCAUGGUCCCAGCCUCCUUGCCGGCGCCGGCUGGGCAACAUUCCGAGGGGACCGUCCCCUCGGUAAUGGCGAAUGGGACCCA [C24U U27C], the self-cleavage amounted to 0.332. With GGCUGGCAUGGUCCCAGCCUCCUCGCUGGCGCCGGCUGGGCAACAUUCCGAGGGGACCGUCCCCUCUGUAAUGGCGAAUGGGACCCA [C4U G67U] the figure was 0.855. For GGCCGGCAUGGUCCCAGCCUCCCCGCUGGCGCCGGCUGGGCAACAUUCCGAGGGGACCGUCCCCUCGGUAAUGACGAAUGGGACCCA [U23C G74A], the self-cleavage was 0.217.

As for GGCCGGCAUGGUGCCAGCCUCCUCGCUGGCGCUGGCUGGGCAACAUUCCGAGGGGACCGUCCCCUCGGUAAUGGCGAAUGGGACCCA [C13G C33U], the self-cleavage came out at 0.0475.

Turning to GGCCGGCAUGGUCCCAGCCUCCUCGCUGGCGCCGGGUGGCCAACAUUCCGAGGGGACCGUCCCCUCGGUAAUGGCGAAUGGGACCCA [C36G G40C], the self-cleavage amounted to 0.185.

As for GGCCGGCAUGGUCCCAGCCUCCUCGAUGGCGCCGGCUGGGCAACAUUCCGAGGGGACCGUCCCCUCGGUUAUGGCGAAUGGGACCCA [C26A A70U], the self-cleavage stood at 1.23. With GGCCGGCAUGGUCCCAGCCUCCUCGCUGGCGCCGGCUGGGCAACAUUCCGAGGGGACCGUCUACUCGGUAAUGGCGAAUGGGACCCA [C62U C63A] the figure was 0.927.

Values taken from the RNAGym collection of RNA variant scans (doi:10.7554/elife.80360).
